Assay results: the supplement of paper PMC10567573

B1: LOC100129726 (parent)
chain: AKAADSPTRNDLESGLGHFSLRVH

Variants of: B1
Experiment: protein stability index of a GFP-peptide fusion (GPS, HEK-293T) (PSI 1-6); higher = more stable
Details: c terminus: a fixed tail appended
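Also: lentivirally expressed fusions sorted by FACS into six bins by GFP to DsRed ratio, PSI derived from sequencing read proportions per bin multiplied by bin number.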

Variant | protein stability index
AKAADSPTRNDLTSGLGHFSLRVH | 2.59
AKAADSPTRNDLNSGLGHFSLRVH | 2.63
AKAADSPTRNDLVSGLGHFSLRVH | 2.52
AKAADSPTRNDLHSGLGHFSLRVH | 2.74
AKAADSPTRNDLSSGLGHFSLRVH | 2.8
AKAADSPTRNDLYSGLGHFSLRVH | 1.38
AKAADSPTRNDLPSGLGHFSLRVH | 2.57
AKAADSPTRNDLRSGLGHFSLRVH | 2.38
AKAADSPTRNDLKSGLGHFSLRVH | 2.08
AKAADSPTRNDLCSGLGHFSLRVH | 2.31
AKAADSPTRNDLGSGLGHFSLRVH | 2.02
AKAADSPTRNDLFSGLGHFSLRVH | 2.19
AKAADSPTRNDLQSGLGHFSLRVH | 2.3
AKAADSPTRNDLMSGLGHFSLRVH | 2.15
AKAADSPTRNDLASGLGHFSLRVH | 2.26
AKAADSPTRNDLISGLGHFSLRVH | 2.32
AKAADSPTRNDLWSGLGHFSLRVH | 1.85
AKAADSPTRNDLDSGLGHFSLRVH | 2.95
AKAADGPTRNDLESGLGHFSLRVH | 2.72
AKAADIPTRNDLESGLGHFSLRVH | 2.53
AKAADDPTRNDLESGLGHFSLRVH | 3.44
AKAADHPTRNDLESGLGHFSLRVH | 2.95
AKAADLPTRNDLESGLGHFSLRVH | 2.16
AKAADQPTRNDLESGLGHFSLRVH | 3.76

Variant | protein stability index
AKAADCPTRNDLESGLGHFSLRVH | 2.71
AKAADEPTRNDLESGLGHFSLRVH | 3.5
AKAADMPTRNDLESGLGHFSLRVH | 2.16
AKAADNPTRNDLESGLGHFSLRVH | 3.58
AKAADFPTRNDLESGLGHFSLRVH | 2.74
AKAADAPTRNDLESGLGHFSLRVH | 2.45
AKAADYPTRNDLESGLGHFSLRVH | 2.26
AKAADTPTRNDLESGLGHFSLRVH | 3.39
AKAADWPTRNDLESGLGHFSLRVH | 1.92
AKAADKPTRNDLESGLGHFSLRVH | 2.98
AKAADRPTRNDLESGLGHFSLRVH | 3.08
AKAADPPTRNDLESGLGHFSLRVH | 3.16
AKAADVPTRNDLESGLGHFSLRVH | 2.77
AKAADSPTRNYLESGLGHFSLRVH | 2.25
AKAADSPTRNQLESGLGHFSLRVH | 2.8
AKAADSPTRNNLESGLGHFSLRVH | 2.47
AKAADSPTRNLLESGLGHFSLRVH | 1.9
AKAADSPTRNPLESGLGHFSLRVH | 2.35
AKAADSPTRNMLESGLGHFSLRVH | 2.19
AKAADSPTRNCLESGLGHFSLRVH | 2.91
AKAADSPTRNRLESGLGHFSLRVH | 2.54
AKAADSPTRNILESGLGHFSLRVH | 1.96
AKAADSPTRNSLESGLGHFSLRVH | 2.64
AKAADSPTRNHLESGLGHFSLRVH | 2.42

Variant | protein stability index
AKAADSPTRNTLESGLGHFSLRVH | 2.3
AKAADSPTRNALESGLGHFSLRVH | 3.1
AKAADSPTRNVLESGLGHFSLRVH | 2.21
AKAADSPTRNELESGLGHFSLRVH | 3.9
AKAADSPTRNGLESGLGHFSLRVH | 2.33
AKAADSPTRNWLESGLGHFSLRVH | 2.56
AKAADSPTRNKLESGLGHFSLRVH | 2.72
AKAADSPTRNFLESGLGHFSLRVH | 2.75
AKAADSPTRSDLESGLGHFSLRVH | 3.17
AKAADSPTRRDLESGLGHFSLRVH | 3.17
AKAADSPTRYDLESGLGHFSLRVH | 1.97
AKAADSPTRWDLESGLGHFSLRVH | 1.88
AKAADSPTRIDLESGLGHFSLRVH | 1.78
AKAADSPTRGDLESGLGHFSLRVH | 2.77
AKAADSPTRPDLESGLGHFSLRVH | 4
AKAADSPTRQDLESGLGHFSLRVH | 3.87
AKAADSPTRMDLESGLGHFSLRVH | 2.51
AKAADSPTRFDLESGLGHFSLRVH | 2.38
AKAADSPTRKDLESGLGHFSLRVH | 2.98
AKAADSPTRCDLESGLGHFSLRVH | 2.13
AKAADSPTRADLESGLGHFSLRVH | 3.06
AKAADSPTRTDLESGLGHFSLRVH | 2.79
AKAADSPTRHDLESGLGHFSLRVH | 3.53
AKAADSPTRVDLESGLGHFSLRVH | 2.56

Variant | protein stability index
AKAADSPTRLDLESGLGHFSLRVH | 2.88
AKAADSPTRDDLESGLGHFSLRVH | 3.61
AKAADSPTTNDLESGLGHFSLRVH | 3.09
AKAADSPTHNDLESGLGHFSLRVH | 3.56
AKAADSPTMNDLESGLGHFSLRVH | 3.46
AKAADSPTENDLESGLGHFSLRVH | 3.95
AKAADSPTINDLESGLGHFSLRVH | 2.37
AKAADSPTKNDLESGLGHFSLRVH | 4.17
AKAADSPTYNDLESGLGHFSLRVH | 2.7
AKAADSPTSNDLESGLGHFSLRVH | 3.25
AKAADSPTQNDLESGLGHFSLRVH | 3.22
AKAADSPTNNDLESGLGHFSLRVH | 3.51
AKAADSPTWNDLESGLGHFSLRVH | 1.86
AKAADSPTANDLESGLGHFSLRVH | 3.47
AKAADSPTLNDLESGLGHFSLRVH | 2.73
AKAADSPTDNDLESGLGHFSLRVH | 3.64
AKAADSPTFNDLESGLGHFSLRVH | 2.4
AKAADSPTGNDLESGLGHFSLRVH | 3.84
AKAADSPTVNDLESGLGHFSLRVH | 2.71
AKAADSPTCNDLESGLGHFSLRVH | 3.04
AKAADSPTPNDLESGLGHFSLRVH | 3.07
AKAADSPTRNDLEVGLGHFSLRVH | 2.63
AKAADSPTRNDLEAGLGHFSLRVH | 3.28
AKAADSPTRNDLEDGLGHFSLRVH | 3.85

Variant | protein stability index
AKAADSPTRNDLEQGLGHFSLRVH | 2.94
AKAADSPTRNDLETGLGHFSLRVH | 2.94
AKAADSPTRNDLEMGLGHFSLRVH | 2.5
AKAADSPTRNDLEEGLGHFSLRVH | 3.81
AKAADSPTRNDLELGLGHFSLRVH | 2.57
AKAADSPTRNDLEFGLGHFSLRVH | 2.25
AKAADSPTRNDLEIGLGHFSLRVH | 2.38
AKAADSPTRNDLEYGLGHFSLRVH | 3.97
AKAADSPTRNDLEPGLGHFSLRVH | 2.85
AKAADSPTRNDLEGGLGHFSLRVH | 2.9
AKAADSPTRNDLEHGLGHFSLRVH | 3.21
AKAADSPTRNDLERGLGHFSLRVH | 2.78
AKAADSPTRNDLECGLGHFSLRVH | 2.34
AKAADSPTRNDLENGLGHFSLRVH | 3.68
AKAADSPTRNDLEWGLGHFSLRVH | 1.36
AKAADSPTRNDLEKGLGHFSLRVH | 3.36
AKAADSPTRNDLESDLGHFSLRVH | 3.51
AKAADSPTRNDLESALGHFSLRVH | 2.4
AKAADSPTRNDLESPLGHFSLRVH | 2.79
AKAADSPTRNDLESRLGHFSLRVH | 2.06
AKAADSPTRNDLESFLGHFSLRVH | 1.74
AKAADSPTRNDLESILGHFSLRVH | 1.86
AKAADSPTRNDLESQLGHFSLRVH | 3.81
AKAADSPTRNDLESHLGHFSLRVH | 3.26

Variant | protein stability index
AKAADSPTRNDLESNLGHFSLRVH | 2.82
AKAADSPTRNDLESMLGHFSLRVH | 2.23
AKAADSPTRNDLESELGHFSLRVH | 2.82
AKAADSPTRNDLESCLGHFSLRVH | 2.18
AKAADSPTRNDLESKLGHFSLRVH | 2.93
AKAADSPTRNDLESSLGHFSLRVH | 2.86
AKAADSPTRNDLESLLGHFSLRVH | 2.37
AKAADSPDRNDLESGLGHFSLRVH | 3.31
AKAADSPARNDLESGLGHFSLRVH | 2.95
AKAADSPGRNDLESGLGHFSLRVH | 3.61
AKAADSPVRNDLESGLGHFSLRVH | 4.01
AKAADSPNRNDLESGLGHFSLRVH | 3.36
AKAADSPRRNDLESGLGHFSLRVH | 2.53
AKAADSPYRNDLESGLGHFSLRVH | 2.75
AKAADSPKRNDLESGLGHFSLRVH | 2.73
AKAADSPMRNDLESGLGHFSLRVH | 2.12
AKAADSPIRNDLESGLGHFSLRVH | 2.45
AKAADSPSRNDLESGLGHFSLRVH | 2.74
AKAADSPFRNDLESGLGHFSLRVH | 2.35
AKAADSPLRNDLESGLGHFSLRVH | 2.13
AKAADSPCRNDLESGLGHFSLRVH | 2.07
AKAADSPHRNDLESGLGHFSLRVH | 2.63
AKAADSPPRNDLESGLGHFSLRVH | 3.38
AKAADSPWRNDLESGLGHFSLRVH | 1.98

Variant | protein stability index
AKAADSPQRNDLESGLGHFSLRVH | 3.1
AKAAWSPTRNDLESGLGHFSLRVH | 2.14
AKAATSPTRNDLESGLGHFSLRVH | 2.61
AKAAVSPTRNDLESGLGHFSLRVH | 2.54
AKAASSPTRNDLESGLGHFSLRVH | 3.07
AKAAYSPTRNDLESGLGHFSLRVH | 2.3
AKAADSPTRNDQESGLGHFSLRVH | 4.45
AKAADSPTRNDWESGLGHFSLRVH | 2.6
AKAADSPTRNDCESGLGHFSLRVH | 2.82
AKAADSPTRNDHESGLGHFSLRVH | 3.57
AKAADSPTRNDEESGLGHFSLRVH | 4
AKAADSPTRNDFESGLGHFSLRVH | 3.06
AKAADSPTRNDNESGLGHFSLRVH | 4.16
AKAADSPTRNDAESGLGHFSLRVH | 3.47
AKAADSPTRNDIESGLGHFSLRVH | 3
AKAADSPTRNDDESGLGHFSLRVH | 3.9
AKAADSPTRNDYESGLGHFSLRVH | 1.93
AKAADSPTRNDSESGLGHFSLRVH | 4.46
AKAADSPTRNDGESGLGHFSLRVH | 3.52
AKAADSPTRNDMESGLGHFSLRVH | 3.78
AKAADSPTRNDRESGLGHFSLRVH | 3.76
AKAADSPTRNDVESGLGHFSLRVH | 3.62
AKAADSPTRNDTESGLGHFSLRVH | 2.91
AKAADSPTRNDKESGLGHFSLRVH | 3.92

Variant | protein stability index
AKAADSPTRNDPESGLGHFSLRVH | 3.51
AKAADSHTRNDLESGLGHFSLRVH | 3.45
AKAADSFTRNDLESGLGHFSLRVH | 2.33
AKAADSKTRNDLESGLGHFSLRVH | 2.92
AKAADSCTRNDLESGLGHFSLRVH | 2.16
AKAADSRTRNDLESGLGHFSLRVH | 3.56
AKAADSMTRNDLESGLGHFSLRVH | 2.57
AKAADSLTRNDLESGLGHFSLRVH | 3.09
AKAADSSTRNDLESGLGHFSLRVH | 2.81
AKAADSITRNDLESGLGHFSLRVH | 2.75
AKAADSYTRNDLESGLGHFSLRVH | 2.18
AKAADSETRNDLESGLGHFSLRVH | 3.28
AKAADSVTRNDLESGLGHFSLRVH | 2.7
AKAADSATRNDLESGLGHFSLRVH | 3.49
AKAADSDTRNDLESGLGHFSLRVH | 3.64
AKAADSTTRNDLESGLGHFSLRVH | 3.2
AKAADSNTRNDLESGLGHFSLRVH | 3.27
AKAADSWTRNDLESGLGHFSLRVH | 1.65
AKAADSGTRNDLESGLGHFSLRVH | 2.77
AKAADSQTRNDLESGLGHFSLRVH | 3.41
